Experimental data published in paper PMC3214075.
Residue numbers refer to the chain shown, from its start. Names may count otherwise.

T1: 14-3-3, P63104
T1 chain: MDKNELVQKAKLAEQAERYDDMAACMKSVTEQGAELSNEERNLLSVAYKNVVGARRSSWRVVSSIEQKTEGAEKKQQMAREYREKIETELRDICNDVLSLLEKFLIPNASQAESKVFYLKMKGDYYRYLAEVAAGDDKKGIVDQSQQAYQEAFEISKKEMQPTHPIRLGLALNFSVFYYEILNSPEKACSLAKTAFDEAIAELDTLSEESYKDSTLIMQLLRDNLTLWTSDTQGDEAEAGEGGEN

B1: GST-BAD wild type, full length (pEBG-BAD), Q61337 S111A; S112A (protein)
chain: MGTPKQPSLAPAHALGLRKSDPGIRSLGSDAGGRRWRPAAQSMFQIPEFEPSEQEDASATDRGLGPSLTEDQPGPYLAPGLLGSNIHQQGRAATNSHHGGAGAMETRSRHAAYPAGTEEDEGMEEELSPFRGRSRSAPPNLWAAQRYGRELRRMSDEFEGSFKGLPRPKSAGTATQMRQSAGWTRIIQSWWDRNLGKGGSTPSQ
B2: GST-BAD wild type, full length (pEBG-BAD), Q61337 S112A; S136A (protein)
chain: B1 chain with A111S, S136A
B3: GST-BAD wild type, full length (pEBG-BAD), Q61337 S136A (protein)
chain: B1 chain with A111S, A112S, S136A
B4: GST-BAD wild type, full length (pEBG-BAD), Q61337 S112A (protein)
chain: B1 chain with A111S
B5: GST-BAD wild type, full length (pEBG-BAD), Q61337 S111A; S136A (protein)
chain: B1 chain with A112S, S136A
B6: GST-BAD wild type, full length (pEBG-BAD), Q61337 S111A; S112A; S136A (protein)
chain: B1 chain with S136A
B7: GST-BAD wild type, full length (pEBG-BAD), Q61337 S111A (protein)
chain: B1 chain with A112S

Biological target: T1, 14-3-3, P63104
Test: GST pull-down, Western blot densitometry
Conditions: chain shown with the change; 293T cell extracts, glutathione beads; two blots quantified; parent: est. 1.5; read off a plot

Row | Binder | response (IB:14-3-3/total 14-3-3)
1 | B1 | 1.9
2 | B2 | 0.19
3 | B3 | 0.17
4 | B4 | 1.8
5 | B5 | 0.2
6 | B6 | 0.22
7 | B7 | 1.7
